From paper PMC12282641

What was measured:
[1] = anti-HK1 blot of HEK293T lysates; settings: glycan lost; control: WT-HK1
[2] = HYlight FBP sensor, axons, 100 AP 10 Hz; settings: glycan lost; control: WT-HK1-FLAG
[3] = GCaMP6s imaging, 100 AP 10 Hz; settings: glycan lost; control: WT-HK1-BFP
[4] = iATPSnFR1.0 imaging, hippocampal neurons, 100 AP 10 Hz; settings: glycan lost; control: WT-HK1-BFP
[5] = multi-electrode array, rat cortical neurons; settings: glycan lost; control: WT-HK1
[6] = fractionation blots for Aldo A, PGK, PKM2, HEK293T; settings: glycan lost; control: WT-HK1 cells, response to OGT + Thiamet-G

B1: Hexokinase 1 (HK1): T259A (protein)
parent chain: MIAAQLLAYYFTELKDDQVKKIDKYLYAMRLSDETLIDIMTRFRKEMKNGLSRDFNPTATVKMLPTFVRSIPDGSEKGDFIALDLGGSSFRILRVQVNHEKNQNVHMESEVYDTPENIVHGSGSQLFDHVAECLGDFMEKRKIKDKKLPVGFTFSFPCQQSKIDEAILITWTKRFKASGVEGADVVKLLNKAIKKRGDYDANIVAVVNDTVGTMMTCGYDDQHCEVGLIIGTGTNACYMEELRHIDLVEGDEGRMCINTEWGAFGDDGSLEDIRTEFDREIDRGSLNPGKQLFEKMVSGMYLGELVRLILVKMAKEGLLFEGRITPELLTRGKFNTSDVSAIEKNKEGLHNAKEILTRLGVEPSDDDCVSVQHVCTIVSFRSANLVAATLGAILNRLRDNKGTPRLRTTVGVDGSLYKTHPQYSRRFHKTLRRLVPDSDVRFLLSESGSGKGAAMVTAVAYRLAEQHRQIEETLAHFHLTKDMLLEVKKRMRAEMELGLRKQTHNNAVVKMLPSFVRRTPDGTENGDFLALDLGGTNFRVLLVKIRSGKKRTVEMHNKIYAIPIEIMQGTGEELFDHIVSCISDFLDYMGIKGPRMPLGFTFSFPCQQTSLDAGILITWTKGFKATDCVGHDVVTLLRDAIKRREEFDLDVVAVVNDTVGTMMTCAYEEPTCEVGLIVGTGSNACYMEEMKNVEMVEGDQGQMCINMEWGAFGDNGCLDDIRTHYDRLVDEYSLNAGKQRYEKMISGMYLGEIVRNILIDFTKKGFLFRGQISETLKTRGIFETKFLSQIESDRLALLQVRAILQQLGLNSTCDDSILVKTVCGVVSRRAAQLCGAGMAAVVDKIRENRGLDRLNVTVGVDGTLYKLHPHFSRIMHQTVKELSPKCNVSFLLSEDGSGKGAALITAVGVRLRTEASS
- expression_or_secretion [1]: no change
- other: activity-evoked glycolysis (FBP level) [2]: abolishes
- other: presynaptic calcium dynamics [3]: no change
- other: axonal ATP recovery after stimulation [4]: abolishes
- other: neuronal network activity [5]: decreases
- other: glycolytic enzyme recruitment to mitochondria [6]: abolishes
